Laboratory results from PMC7498065 (PLoS Biology, 2020).

Experiments:
Conditions in all cases: both partners purified
[1] = molecular target: T1, human complement component C3 (Homo sapiens, UniProt P01024); assay: SPR; Biacore single-cycle kinetics counter screen; C3 amine-coupled to CM5 (minimal immobilisation, 40-55 RU); PGT121 knob fusion proteins as analytes
T1 construct: Complement component C3, human, beta chain of the processed serum protein; Complement component C3, human, alpha chain of the processed serum protein; source: bought: CompTech

[2] = molecular target: T2, Complement component C5 (Homo sapiens, UniProt P01031); assay: FRET or BRET; steady state FRET; 1 nM terbium-labelled C5; titration of AlexaFluor 647-labelled PGT121 knob fusion protein in HBS-EP, with and without 1 μM unlabelled C5; 24 hours; apparent KD (KD app), geomean of 3 experiments
T2 construct: Complement component C5, human, beta chain of the processed serum protein; Complement component C5, human, alpha chain of the processed serum protein; In the FRET assays C5 carried an amine-reactive terbium chelate (dye to protein 4:1); in SPR it was amine-coupled to a CM5 chip; The C5 used for immunisation was bought from CompTech; also called human C5; C5-Tb

[3] = molecular target: T2, Complement component C5; assay: SPR; Biacore 8K single-cycle kinetics; C5 amine-coupled to CM5 (minimal immobilisation, 100-160 RU; 50-85 RU for PGT121-K149); PGT121 knob fusion proteins as analytes, 1 μM to 1.37 nM in HBS-EP; 40 μL/min (100 μL/min for K149); dissociation 10,000 s; 1:1 model; mean of 3 experiments

T2 sequence (P01031 whole entry, looked up, the tested form may be a part): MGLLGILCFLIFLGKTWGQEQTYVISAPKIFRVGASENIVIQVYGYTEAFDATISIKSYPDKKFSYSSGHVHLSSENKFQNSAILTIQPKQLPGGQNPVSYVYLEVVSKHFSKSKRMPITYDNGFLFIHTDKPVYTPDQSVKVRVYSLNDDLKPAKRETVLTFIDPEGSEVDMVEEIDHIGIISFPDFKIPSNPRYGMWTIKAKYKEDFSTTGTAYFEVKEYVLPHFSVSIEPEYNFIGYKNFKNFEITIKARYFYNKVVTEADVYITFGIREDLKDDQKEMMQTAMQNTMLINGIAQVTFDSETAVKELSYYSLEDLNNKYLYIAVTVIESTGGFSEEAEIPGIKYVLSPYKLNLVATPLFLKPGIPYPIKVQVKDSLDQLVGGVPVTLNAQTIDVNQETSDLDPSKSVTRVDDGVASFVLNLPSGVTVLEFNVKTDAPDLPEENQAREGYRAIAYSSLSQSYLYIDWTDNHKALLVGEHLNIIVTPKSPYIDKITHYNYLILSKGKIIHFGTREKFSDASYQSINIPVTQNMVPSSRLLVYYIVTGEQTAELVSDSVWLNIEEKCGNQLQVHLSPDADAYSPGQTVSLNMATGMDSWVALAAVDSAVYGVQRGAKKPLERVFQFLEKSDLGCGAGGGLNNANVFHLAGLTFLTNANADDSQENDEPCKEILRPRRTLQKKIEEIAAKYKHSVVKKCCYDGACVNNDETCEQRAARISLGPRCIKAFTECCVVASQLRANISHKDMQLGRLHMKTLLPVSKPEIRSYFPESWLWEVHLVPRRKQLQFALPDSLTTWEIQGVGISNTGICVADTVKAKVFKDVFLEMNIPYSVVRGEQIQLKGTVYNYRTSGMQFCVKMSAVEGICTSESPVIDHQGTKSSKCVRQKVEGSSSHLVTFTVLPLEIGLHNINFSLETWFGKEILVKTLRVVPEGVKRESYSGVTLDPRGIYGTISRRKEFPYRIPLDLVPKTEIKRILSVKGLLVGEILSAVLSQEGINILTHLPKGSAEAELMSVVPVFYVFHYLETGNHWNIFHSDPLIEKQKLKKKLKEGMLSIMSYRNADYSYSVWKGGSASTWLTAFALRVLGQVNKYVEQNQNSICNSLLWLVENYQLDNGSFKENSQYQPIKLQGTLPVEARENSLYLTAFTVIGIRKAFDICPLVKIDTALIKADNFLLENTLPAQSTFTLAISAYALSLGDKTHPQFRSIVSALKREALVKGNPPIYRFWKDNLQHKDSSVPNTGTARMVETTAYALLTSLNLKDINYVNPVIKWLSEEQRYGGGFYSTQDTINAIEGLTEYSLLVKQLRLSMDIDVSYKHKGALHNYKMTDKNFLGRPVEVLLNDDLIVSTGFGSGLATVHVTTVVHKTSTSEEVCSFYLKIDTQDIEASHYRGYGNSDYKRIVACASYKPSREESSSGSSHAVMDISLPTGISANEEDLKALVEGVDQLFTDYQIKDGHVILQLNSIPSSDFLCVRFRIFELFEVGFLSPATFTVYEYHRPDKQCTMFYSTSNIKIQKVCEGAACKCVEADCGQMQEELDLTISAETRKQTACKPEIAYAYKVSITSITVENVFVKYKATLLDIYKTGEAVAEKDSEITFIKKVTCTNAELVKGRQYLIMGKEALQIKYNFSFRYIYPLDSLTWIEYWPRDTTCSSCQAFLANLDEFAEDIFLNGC
T1 sequence (P01024 whole entry, looked up, the tested form may be a part): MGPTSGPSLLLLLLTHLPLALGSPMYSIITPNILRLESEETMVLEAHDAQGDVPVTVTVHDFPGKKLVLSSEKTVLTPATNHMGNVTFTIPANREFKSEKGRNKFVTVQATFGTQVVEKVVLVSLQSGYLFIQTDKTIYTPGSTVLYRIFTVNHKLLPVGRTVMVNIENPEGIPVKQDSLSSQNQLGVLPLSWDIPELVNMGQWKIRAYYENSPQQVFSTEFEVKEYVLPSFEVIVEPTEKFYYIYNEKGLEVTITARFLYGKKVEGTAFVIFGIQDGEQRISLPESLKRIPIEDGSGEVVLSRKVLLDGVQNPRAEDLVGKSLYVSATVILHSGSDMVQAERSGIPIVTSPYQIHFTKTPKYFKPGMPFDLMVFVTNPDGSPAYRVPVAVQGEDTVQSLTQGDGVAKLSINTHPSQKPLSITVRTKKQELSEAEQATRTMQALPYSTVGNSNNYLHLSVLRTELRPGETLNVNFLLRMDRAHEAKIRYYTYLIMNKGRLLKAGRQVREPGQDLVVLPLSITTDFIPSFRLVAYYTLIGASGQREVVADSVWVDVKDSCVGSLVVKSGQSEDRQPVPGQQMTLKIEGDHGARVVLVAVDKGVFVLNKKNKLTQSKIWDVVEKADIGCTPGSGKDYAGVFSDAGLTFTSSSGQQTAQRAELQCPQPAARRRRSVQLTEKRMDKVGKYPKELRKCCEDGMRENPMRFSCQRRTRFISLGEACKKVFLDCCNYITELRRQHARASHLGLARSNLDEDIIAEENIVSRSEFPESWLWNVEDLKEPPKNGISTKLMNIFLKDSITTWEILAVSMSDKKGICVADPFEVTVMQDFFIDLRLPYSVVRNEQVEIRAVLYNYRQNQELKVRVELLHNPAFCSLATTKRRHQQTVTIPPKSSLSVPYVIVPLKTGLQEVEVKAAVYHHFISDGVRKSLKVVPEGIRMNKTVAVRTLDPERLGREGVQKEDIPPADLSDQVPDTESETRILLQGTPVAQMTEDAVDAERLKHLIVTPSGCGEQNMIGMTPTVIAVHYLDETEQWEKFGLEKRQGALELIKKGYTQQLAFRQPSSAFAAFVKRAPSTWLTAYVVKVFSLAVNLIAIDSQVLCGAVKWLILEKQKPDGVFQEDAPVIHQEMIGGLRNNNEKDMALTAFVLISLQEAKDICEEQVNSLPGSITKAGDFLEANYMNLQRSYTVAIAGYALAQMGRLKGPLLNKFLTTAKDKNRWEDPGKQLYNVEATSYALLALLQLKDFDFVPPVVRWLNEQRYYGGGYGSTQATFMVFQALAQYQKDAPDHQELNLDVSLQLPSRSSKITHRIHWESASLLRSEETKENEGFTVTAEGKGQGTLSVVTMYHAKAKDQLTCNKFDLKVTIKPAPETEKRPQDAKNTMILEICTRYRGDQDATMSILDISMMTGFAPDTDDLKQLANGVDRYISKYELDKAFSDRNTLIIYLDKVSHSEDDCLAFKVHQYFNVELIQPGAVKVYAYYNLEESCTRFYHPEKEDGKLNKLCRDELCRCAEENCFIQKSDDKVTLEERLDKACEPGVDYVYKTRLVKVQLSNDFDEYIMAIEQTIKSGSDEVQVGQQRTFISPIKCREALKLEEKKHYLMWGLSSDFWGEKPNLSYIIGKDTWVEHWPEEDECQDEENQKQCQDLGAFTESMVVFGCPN

| Binder | binding result [1] | Kd [2] [nM] | koff [3] [s⁻¹] |
| --- | --- | --- | --- |
| PGT121-K136 fusion protein (Fab, light chain of the human Fab PGT121, as the light chain of m4; Purified on a nickel column, so a His tag is surmised; also called PGT121 Fab-knob domain fusion protein (K136); source: Expi293F, transient co-transfection of heavy and light chain, purified from supernatant (Hi-Trap Nickel excel)) VH: QMQLQESGPGLVKPSETLSLTCSVSGASISDSYWSWIRRSPGKGLEWIGYVHKSGDTNYSPSLKSRVNLSLDTSKNQVSLSLVAATAADSGKYYCARTLHGRRIYGSENLYFQGTCPDNYREVDGCDPYDCCLTTWCTNSYCTRYIENLYFQGSEWFTYFYMDVWGNGTQVTVSS VL: QSVLTQPPDISVAPGETARISCGEKSLGSRAVQWYQHRAGQAPSLIIYNNQDRPSGIPERFSGSPDSPFGTTATLTITSVEAGDEADYYCHIWDSRVPTKWVFGGGTTLTVL | no binding (tested: 1 μM) | 40 | < 1e-05 |
| PGT121-K149 fusion protein (Fab, light chain of the human Fab PGT121, as the light chain of m4; Purified on a nickel column, so a His tag is surmised; also called K149-PGT121 construct; source: Expi293F, transient co-transfection of heavy and light chain, purified from supernatant (Hi-Trap Nickel excel)) VH: QMQLQESGPGLVKPSETLSLTCSVSGASISDSYWSWIRRSPGKGLEWIGYVHKSGDTNYSPSLKSRVNLSLDTSKNQVSLSLVAATAADSGKYYCARTLHGRRIYGSENLYFQGSCPDGFSYRSWDDFCCPMVGRCLAPRNGSENLYFQGSEWFTYFYMDVWGNGTQVTVSS VL: QSVLTQPPDISVAPGETARISCGEKSLGSRAVQWYQHRAGQAPSLIIYNNQDRPSGIPERFSGSPDSPFGTTATLTITSVEAGDEADYYCHIWDSRVPTKWVFGGGTTLTVL | no binding (tested: 1 μM) | 66 |  |
